Numbering of substitutions follows the chain as printed. Names may count otherwise.
T1: Recombinant human CD123 SP2 ECD protein (human, UniProt P26951 101-303)
T1 construct: also called rhCD123 SP2; CD123 ECD SP2
T1 sequence: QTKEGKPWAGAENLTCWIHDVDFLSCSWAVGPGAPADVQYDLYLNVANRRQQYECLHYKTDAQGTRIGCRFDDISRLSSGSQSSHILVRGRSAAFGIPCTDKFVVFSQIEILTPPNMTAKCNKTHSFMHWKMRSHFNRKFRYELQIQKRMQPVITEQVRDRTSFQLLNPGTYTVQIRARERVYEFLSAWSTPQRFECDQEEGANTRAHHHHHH

T2: Recombinant human CD123 SP1 ECD-His tag protein (human, UniProt P26951 20-305)
T2 construct: bought from R&D Systems (#301-R3/CF); biotinylated for some assays; also called rhCD123 SP1; huCD123 ECD SP1
T2 sequence: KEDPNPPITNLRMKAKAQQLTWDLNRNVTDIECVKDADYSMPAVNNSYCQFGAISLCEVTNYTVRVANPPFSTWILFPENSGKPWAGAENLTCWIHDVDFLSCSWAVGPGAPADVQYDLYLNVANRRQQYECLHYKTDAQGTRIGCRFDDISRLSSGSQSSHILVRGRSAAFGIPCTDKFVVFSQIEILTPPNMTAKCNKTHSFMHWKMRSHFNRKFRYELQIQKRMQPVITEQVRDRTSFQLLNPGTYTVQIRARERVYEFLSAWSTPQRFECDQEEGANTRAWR

T3: human CD123 SP1 ECD displayed on pDisplay-transfected cells (human, UniProt P26951 20-305)
T3 construct: ECD anchored on the surface of stably transfected HEK293 cells by the PDGFR transmembrane domain; also called hCD123 SP1 cells; hCD123 cells
T3 sequence: T2 sequence

T4: human CD123 SP2 ECD displayed on pDisplay-transfected cells (human, UniProt P26951 101-305)
T4 construct: ECD anchored on the surface of stably transfected HEK293 cells; also called hCD123 SP2 cells; pDisplay CD123SP2
T4 sequence: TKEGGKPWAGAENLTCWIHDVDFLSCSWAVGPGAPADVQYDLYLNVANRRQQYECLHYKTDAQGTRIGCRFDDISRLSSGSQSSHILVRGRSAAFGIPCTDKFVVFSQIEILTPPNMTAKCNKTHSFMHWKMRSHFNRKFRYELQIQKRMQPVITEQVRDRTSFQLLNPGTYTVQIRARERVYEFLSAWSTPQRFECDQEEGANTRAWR

B1: bispecific antibody Ab 3978 (bispecific antibody, human IgG4 S228P, kappa, lambda, F234A L235A)
heavy 1: EVQLLESGGGLVQPGGSLRLSCAASGFTFNTYAMNWVRQAPGKGLEWVARIRSKYNNYATYYADSVKGRFTISRDNSKNTLYLQMNSLRAEDTAVYYCVKHGNFGNSYVSWFAYWGQGTLVTVSSASTKGPSVFPLAPCSRSTSESTAALGCLVKDYFPEPVTVSWNSGALTSGVHTFPAVLQSSGLYSLSSVVTVPSSSLGTKTYTCNVDHKPSNTKVDKRVESKYGPPCPPCPAPEAAGGPSVFLFPPKPKDTLMISRTPEVTCVVVDVSQEDPEVQFNWYVDGVEVHNAKTKPREEQFNSTYRVVSVLTVLHQDWLNGKEYKCKVSNKGLPSSIEKTISKAKGQPREPQVYTLPPSQEEMTKNQVSLTCLVKGFYPSDIAVEWESNGQPENNYKTTPPVLDSDGSFLLYSKLTVDKSRWQEGNVFSCSVMHEALHNHYTQKSLSLSLGK
light 1: QAVVTQEPSLTVSPGGTVTLTCRSSTGAVTTSNYANWVQQKPGQAPRGLIGGTNKRAPGTPARFSGSLLGGKAALTLSGAQPEDEAEYYCALWYSNLWVFGGGTKLTVLGQPKAAPSVTLFPPSSEELQANKATLVCLISDFYPGAVTVAWKADSSPVKAGVETTTPSKQSNNKYAASSYLSLTPEQWKSHRSYSCQVTHEGSTVEKTVAPTECS
heavy 2: not shown
light 2: EIVLTQSPGTLSLSPGERATLSCRASQSVSSSYLAWYQQKPGQAPRLLIYGASSRATGIPDRFSGSGSGTDFTLTISRLEPEDFAVYYCQQDYGFPWTFGQGTKVEIKRTVAAPSVFIFPPSDEQLKSGTASVVCLLNNFYPREAKVQWKVDNALQSGNSQESVTEQDSKDSTYSLSSTLTLSKADYEKHKVYACEVTHQGLSSPVTKSFNRGEC
notes: IgG4-PAA; CD3 arm of CD3B217 (first heavy and light chain), CD123 arm of I3RB217 (I3RB18)
B2: bispecific antibody Ab 8876 (bispecific antibody, human IgG4 S228P, kappa, lambda, F234A L235A)
heavy 1: B1 heavy 1
light 1: B1 light 1
heavy 2: not shown
light 2: not shown
notes: also called 8876I
B3: bispecific antibody Ab 7955 (bispecific antibody, human IgG4 S228P, kappa, lambda, F234A L235A)
heavy 1: B1 heavy 1
light 1: B1 light 1 with A2T, A80V
heavy 2: not shown
light 2: B1 light 2
notes: IgG4-PAA; CD3 arm of CD3B218, CD123 arm of I3RB217 (I3RB18)
B4: CD3B152 (antibody, IgG1, V domains shown)
VH: EVQLLESGGGLVQPGGSLRLSCAASGFTFNTYAMNWVRQAPGKGLEWVARIRSKYNNYATYYADSVKGRFTISRDNSKNTLYLQMNSLRAEDTAVYYCVKHGNFGNSYVSWFAYWGQGTLVTVSS
VL: QSVLTQPPSVSAAPGQKVTISCRSSTGAVTTSNYANWVQQLPGTAPKGLIGGTNKRAPGIPDRFSGSKSGTSATLGITGLQTGDEADYYCALWYSNLWVFGGGTKLTVL
notes: IgG1 constant region with L234A, L235A, F405L; human lambda light chain constant region
B5: CD3B156 (antibody, IgG1, V domains shown)
VH: EVQLVESGGGLVQPGGSLKLSCAASGFTFNTYAMNWVRQASGKGLEWVGRIRSKYNGYATYYAASVKGRFTISRDDSKNTAYLQMNSLKTEDTAVYYCTRHGNFGNSYVSWFAYWGQGTLVTVSS
VL: B4 VL
notes: as for B4
B6: CD3B158 (antibody, IgG1, V domains shown)
VH: B5 VH
VL: QTVVTQEPSLTVSPGGTVTLTCRSSTGAVTTSNYANWVQQKPGQAPRGLIGGTNKRAPGTPARFSGSLLGGKAALTLSGVQPEDEAEYYCALWYSNLWVFGGGTKLTVL
notes: as for B4
B7: CD3B155 (antibody, IgG1, V domains shown)
VH: B5 VH
VL: B6 VL with T2A, V80A
notes: as for B4
B8: CD3B151 (antibody, IgG1, V domains shown)
VH: B4 VH
VL: B6 VL with T2A, V80A
notes: as for B4
B9: CD3B154 (antibody, IgG1, V domains shown)
VH: B4 VH
VL: B6 VL
notes: as for B4

What follows are binders tested against T1, Recombinant human CD123 SP2 ECD protein (assay: SPR Biacore T200, captured antibody).
Method: (§1) Kinetic studies were performed at 25° C. using a Biacore T200 (Biacore, Inc., now part of GE Healthcare). […] The carboxymethyl groups of dextran were activated with N-Ethyl-N′-(3-Dimethylaminopropyl)carbodiimide (EDC) and N-hydroxysuccinimide (NHS). The anti-Fc antibody was coupled at pH 4.5 in 10 mM sodium acetate. Any remaining reactive sites on the surface were blocked by reaction with ethanolamine. […] 40-70 RU of antibody were captured. […] Association data was collected for 2 min followed by 10 min of dissociation. The surface was regenerated with 30 μL of 100 mM H3PO4 100 μL/min, followed by 50 mM NaOH. The samples for kinetic analysis were prepared in PBS-based buffer (D-PBS containing 3 mM EDTA and 0.005% surfactant P20). Data reported is the difference in SPR signal between the flow cell containing the captured antibody and a reference cell without captured antibody. Additional instrumental contributions to the signal were removed by subtraction of the data from the blank injection from the reference-subtracted signal. Data were analyzed by fitting association and dissociation phases at all concentrations (global fit) with a 1:1 binding model using the BIAevaluation software (BIAcore, Inc.).
For B1, the Kd was 0.356 nM, the koff was 0.0011 s⁻¹ and the kon was 3.12e+06 M⁻¹ s⁻¹.
B2 was tested, and the Kd was 1.75 nM, the koff was 0.005 s⁻¹ and the kon was 2.83e+06 M⁻¹ s⁻¹.
B3 showed a Kd of 0.344 nM, a koff of 0.0011 s⁻¹ and a kon of 3.33e+06 M⁻¹ s⁻¹.

These binders were tested against T2, Recombinant human CD123 SP1 ECD-His tag … (assay: SPR Biacore T200, captured antibody).
Method: as §1
In the case of B1, the Kd is reported as 1.47 nM, the koff is reported as 0.00083 s⁻¹ and the kon is reported as 564000 M⁻¹ s⁻¹.
With B2 the Kd was 14.4 nM, the koff was 0.0049 s⁻¹ and the kon was 343000 M⁻¹ s⁻¹.
B3 was tested, and the Kd was 1.49 nM, the koff was 0.00084 s⁻¹ and the kon was 562000 M⁻¹ s⁻¹.

The binders below were run against T5, cell-surface CD3 epsilon on primary human T cells (human, UniProt P07766 23-207) (assay: flow cytometry competition with labeled CD3B146 on T cells).
T5 construct: whole, on cells; part of the CD3/TCR complex on the cells
T5 sequence (P07766 23-207): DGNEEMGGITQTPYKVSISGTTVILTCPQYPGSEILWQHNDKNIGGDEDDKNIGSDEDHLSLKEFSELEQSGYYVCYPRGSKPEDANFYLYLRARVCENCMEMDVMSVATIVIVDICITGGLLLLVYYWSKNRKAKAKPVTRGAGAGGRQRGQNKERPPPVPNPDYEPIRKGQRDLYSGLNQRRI
Source text: (§2) The format involved competition binding using a fixed concentration of labeled anti-CD3 mAb of known affinity and increasing concentrations of unlabeled test Abs (Ashkenazi A et al. PNAS: 88:10535, 1991.).
In the case of B1, the Kd is reported as 241 nM.
B2 showed a Kd of 169 nM.
B3 showed a Kd of 210 nM.

The binders below were run against T6, cell-surface CD3 epsilon on primary cynomolgus T cells (cynomolgus monkey, UniProt Q95LI5 22-198) in the same assay as above.
T6 construct: whole, on cells; also called cynomolgus CD3e; Cyno T-cells
T6 sequence (Q95LI5 22-198): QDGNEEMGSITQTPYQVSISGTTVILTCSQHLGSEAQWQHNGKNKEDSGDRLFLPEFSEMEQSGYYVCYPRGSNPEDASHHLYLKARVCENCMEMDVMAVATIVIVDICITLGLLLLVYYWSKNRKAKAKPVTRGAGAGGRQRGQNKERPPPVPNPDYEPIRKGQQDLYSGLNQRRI
Source text: as §2
For B1, the Kd was 215 nM.
In the case of B2, the Kd is reported as 110 nM.
B3 gave a Kd of 169 nM.

These binders were tested against T5, cell-surface CD3 epsilon on primary … (assay: flow cytometry on primary human T cells, anti-human IgG Alexa Fluor 647; MFI).
Method: (§3) The resulting panel of anti-CD3 antibodies was tested for binding against cell-surface CD3ε on primary human T cells. To do this, binding of antibodies from expression supernatants was visualized using a polyclonal anti-human secondary antibody and analyzed by flow cytometry. Briefly, binding of anti-CD3 antibodies to cell-surface CD3ε was assessed by flow cytometry using primary Human T lymphocytes purified by negative selection (Biological Specialty, Colmar, USA). Expression supernatants or purified antibodies were normalized to 10 μg/ml in media or FACS buffer (BD BioSciences), respectively. 2×10⁵ cells were aliquoted into wells of a 96 well round-bottomed plate (CoStar) for labeling. Antibodies in expression supernatant were added to cells and incubated for 45 min at 4° C. Following centrifugation at 1300 rpm for 3 min and removal of supernatant, 50 μL of anti-human IgG (H+L) Alexa Fluor 647 secondary antibody (Life technologies Inc.) was incubated with the cells at a final concentration of 10 μg/mL for 30 min at 4° C. away from direct light. Following washing and resuspension in 30 μL FACs buffer (BD BioSciences). Sample collection was performed on an Intellicyt HTFC system using ForeCyt software. Viable single cells were gated prior to analysis of binding using the green or red fixable live/dead dyes (Life Technologies Inc.) and forward/side scatter area and height parameters, respectively. Graphs were generated in GraphPad Prism version 5 using mean fluorescence intensity values.
B4: no binding.
B5: binds.
B6: binds.
B7: binds.
B8: binds.
B9: binds.

The binders below were run against T6, cell-surface CD3 epsilon on primary … (assay: flow cytometry on primary cynomolgus CD4+ T cells, anti-human IgG Alexa Fluor 647; MFI).
Method: as §3
Binding analysis of the anti-CD3 hits to primary cynomolgusCD4⁺ T cells was then tested in order to assess the retention of cross-reactivity. Purified CD4⁺ T cells from the peripheral blood of cynomolgus monkeys (Zen Bio, Triangle Research Park, USA were used). Assay protocols were similar to those described above.
B4: no binding (tested: not printed).
B5: binds.
B6: binds.
B7: binds.
B8: binds.
B9: binds.

Each binder was assayed against T3, human CD123 SP1 ECD displayed on … (assay: MSD-CAT on pDisplay cells).
Method: (§4) The MSD-CAT was developed in-house as a label-free method to determine affinity using intact cells in a high throughput format. […] Cell lines used were human pDisplay CD123SP1 and pDisplay CD123SP2. […] These samples were prepared in DMEM Glutamax medium containing 0.05% Azide, 1% BSA, 3 mM EDTA. […] After equilibration the plate was centrifuged for 5 minutes ˜1000 rpm and free anti-CD3 detected on the supernatant. […] The assay buffer was removed without washing and 50 uL/well of 0.7 ug/mL of biotinylated antigen in assay buffer were added to MSD plates and incubated overnight (˜16 hours at 4° C.).
Binder B1 has a Kd of 0.153 nM.
B2 gave a Kd of 1.29 nM.
B3 was tested, and the Kd was 0.136 nM.

Each binder was assayed against T4, human CD123 SP2 ECD displayed on … (assay: MSD-CAT on pDisplay cells).
Method: as §4
B1 gave a Kd of 0.528 nM.
Work on B2 yielded a Kd of 2.45 nM.
Work on B3 yielded a Kd of 0.436 nM.

— patent US20160068605A1 (Janssen / Centocor, published 2016)
